Experimental data as given in patent US20160168251A1.

Target: human NPRA on HEK293 cells, without added ligand (human) (UniProt P16066)
Assay: cell-based or functional assay

Chain of human NPRA on HEK293 cells, without added ligand (human) (P16066 33-1061 limits assumed): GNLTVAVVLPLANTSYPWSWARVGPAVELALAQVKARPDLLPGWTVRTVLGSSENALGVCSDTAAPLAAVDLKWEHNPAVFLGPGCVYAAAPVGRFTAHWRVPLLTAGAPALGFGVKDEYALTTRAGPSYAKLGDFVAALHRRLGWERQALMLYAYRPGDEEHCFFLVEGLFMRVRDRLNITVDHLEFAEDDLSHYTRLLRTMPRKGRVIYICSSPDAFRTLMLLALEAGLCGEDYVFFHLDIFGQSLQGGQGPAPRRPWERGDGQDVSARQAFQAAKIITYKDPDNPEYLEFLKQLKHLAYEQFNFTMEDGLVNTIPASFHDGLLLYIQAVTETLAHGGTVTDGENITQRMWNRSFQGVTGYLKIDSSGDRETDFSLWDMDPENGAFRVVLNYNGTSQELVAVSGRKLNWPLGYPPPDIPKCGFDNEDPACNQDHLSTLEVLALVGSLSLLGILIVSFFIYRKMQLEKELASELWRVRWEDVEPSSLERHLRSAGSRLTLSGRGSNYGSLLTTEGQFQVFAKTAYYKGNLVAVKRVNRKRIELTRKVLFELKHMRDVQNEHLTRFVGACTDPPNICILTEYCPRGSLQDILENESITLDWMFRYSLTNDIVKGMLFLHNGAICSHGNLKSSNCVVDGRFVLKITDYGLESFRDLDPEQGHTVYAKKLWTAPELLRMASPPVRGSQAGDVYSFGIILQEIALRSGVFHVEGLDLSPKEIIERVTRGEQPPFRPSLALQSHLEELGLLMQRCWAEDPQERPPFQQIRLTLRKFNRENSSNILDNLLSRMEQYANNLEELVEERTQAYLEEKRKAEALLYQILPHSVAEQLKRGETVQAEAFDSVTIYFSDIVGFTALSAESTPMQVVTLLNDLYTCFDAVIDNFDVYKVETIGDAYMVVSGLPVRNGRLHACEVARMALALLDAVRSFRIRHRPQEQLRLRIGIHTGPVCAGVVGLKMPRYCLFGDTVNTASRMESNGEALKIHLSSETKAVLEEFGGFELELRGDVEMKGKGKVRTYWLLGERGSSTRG

In the case of “B-type natriuretic peptide (BNP), free (from UniProt P16860 27-134) (ligand)”, the EC50 of BNP, cGMP production in HEK NPRA cells, in presence of negative control Fab is reported as 0.09 µM.
